We go through 5 molecules from publication PMC8526623, “PHF3 regulates neuronal gene expression through the Pol II CTD reader domain SPOC” (Nature Communications, 2021).

Square brackets hold non-standard residues; d marks the D form. Ends that are not written are not given here. pS = N[C@@H](COP(=O)(O)O)C(=O)O; FAM = 5,6-carboxyfluorescein

For assay [1], the target named is 2xpS2 CTD diheptapeptide, Atto-488 labeled. Nature of the assay: fluorescence correlation spectroscopy (FCS); 15 nM Atto-488 labeled peptide with 40-0.2 µM SPOC, 20 °C; molar masses from diffusion times.
The target of assay [2] is 2xpS2pS5 CTD diheptapeptide, Atto-488 labeled. The description is as above.
The target in assay [3] is 2xpS5 CTD diheptapeptide, FAM-labeled. Nature of the assay: fluorescence polarisation; fluorescence anisotropy; 10 nM FAM-labeled CTD peptide titrated with SPOC protein; 20 °C, 25 mM Tris-Cl pH 8, 25 mM NaCl, 1 mM DTT; one site saturation with non-specific binding model. In general terms: In fluorescence polarisation assays a small probe gives low polarisation when free and higher when bound to something large.

Assay [4] has as its target 2xpS7 CTD diheptapeptide, FAM-labeled. The assay is described as above.
Assay [5] concerns the target T1, 2xpS2 CTD diheptapeptide, FAM-labeled.
T1 construct: CTD diheptapeptide: two heptarepeats (Y1S2P3T4S5P6S7) of the C-terminal domain of RPB1, the largest Pol II subunit; source: synthetic peptide (Clonestar)
T1 peptide: {FAM}-Y[pS]PTSPSY[pS]PTSPS
The description is as above.

In assay [6] the target is T2, 2xpS2pS7 CTD diheptapeptide, FAM-labeled.
T2 construct: CTD diheptapeptide: two heptarepeats (Y1S2P3T4S5P6S7) of the C-terminal domain of RPB1, the largest Pol II subunit; source: synthetic peptide (Clonestar)
T2 peptide: {FAM}-Y[pS]PTSP[pS]Y[pS]PTSP[pS]
The description is as above.

Assay [7] deals with T3, 2xpS2pS5 CTD diheptapeptide, FAM-labeled.
T3 construct: CTD diheptapeptide: two heptarepeats (Y1S2P3T4S5P6S7) of the C-terminal domain of RPB1, the largest Pol II subunit; source: synthetic peptide (Clonestar)
T3 peptide: {FAM}-Y[pS]PT[pS]PSY[pS]PT[pS]PS
The description is as above.

Assay [8] addresses T4, PHF3 SPOC R1248A mutant (human, UniProt Q92576 1199-1356, R1248A).
T4 sequence: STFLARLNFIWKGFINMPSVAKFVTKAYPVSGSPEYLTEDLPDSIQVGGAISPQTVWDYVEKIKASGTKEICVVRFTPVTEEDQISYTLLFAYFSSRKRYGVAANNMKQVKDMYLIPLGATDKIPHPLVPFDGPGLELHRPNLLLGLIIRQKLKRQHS
Nature of the assay: FP; 25 mM NaCl.

The target in assay [9] is T5, PHF3 SPOC domain (1199-1356aa), bacterially expressed (human, UniProt Q92576 1199-1356).
T5 chain: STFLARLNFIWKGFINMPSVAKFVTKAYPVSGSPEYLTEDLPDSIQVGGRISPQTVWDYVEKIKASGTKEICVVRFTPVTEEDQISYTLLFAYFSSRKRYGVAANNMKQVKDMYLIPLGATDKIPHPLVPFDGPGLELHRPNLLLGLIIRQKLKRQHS
Nature of the assay: FP; 100 mM NaCl.

One may read the stoichiometry N as a count of units in the complex or per binding partner. The term Kd denotes a measure of binding affinity in units of concentration. On to “PHF3 SPOC domain (1199-1356aa), bacterially expressed (from UniProt Q92576 1199-1356) (domain or fragment)”, for which the stoichiometry N in assay [1] and in [2] was 1 in each case. The Kd worked out at 20 µM in assay [3]; 26 µM in assay [4]; 1.6 µM in assay [5]; 0.8 µM in [6]; 4.8 µM in assay [7].

B1: PHF3 SPOC R1248A mutant (domain or fragment, human, UniProt Q92576 1199-1356, looked up)
chain: STFLARLNFIWKGFINMPSVAKFVTKAYPVSGSPEYLTEDLPDSIQVGGAISPQTVWDYVEKIKASGTKEICVVRFTPVTEEDQISYTLLFAYFSSRKRYGVAANNMKQVKDMYLIPLGATDKIPHPLVPFDGPGLELHRPNLLLGLIIRQKLKRQHS
notes: Expression, purification and tag cleavage are told only for SPOC in general; source: E. coli Rosetta2 (DE3), purified (told for SPOC); not shown: His6, N-terminal, cleaved
Consider B1, for which the “fold reduction of binding against PHF3 SPOC WT” value in [5] (both partners purified), in assay [6] (both partners purified) and in assay [7] (both partners purified) was above 10 fold in each case.

B2: 2xpS2pS5 CTD diheptapeptide, FAM-labeled (peptide)
peptide: {FAM}-Y[pS]PT[pS]PSY[pS]PT[pS]PS
Take B2: the Kd in assay [8] was found to be 48.3 µM.

B3: 2xpS5 CTD diheptapeptide, FAM-labeled (peptide)
peptide: {FAM}-YSPT[pS]PSYSPT[pS]PS
The molecule B3 registered an equilibrium dissociation constant (Kd) in assay [8] of 22.3 µM.

B4: 2xpS2 CTD diheptapeptide, FAM-labeled (peptide)
peptide: {FAM}-Y[pS]PTSPSY[pS]PTSPS
Molecule B4 had a Kd in assay [9] of 1.4 µM.
